Test results from the supplement of paper PMC10567573.

B1: ADAMTS4 (parent)
chain: SFRKFRYGYNNVVTIPAGATHILV
B2: UBE2R2 (parent)
chain: DPQSGELPSERWNPTQNVRTILLS

Variants of: B1
Experiment: protein stability index of a GFP-peptide fusion (GPS, HEK-293T) (PSI 1-6); higher = more stable
Conditions: c terminus: a fixed tail appended
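Also: lentivirally expressed fusions sorted by FACS into six bins by GFP to DsRed ratio, PSI derived from sequencing read proportions per bin multiplied by bin number.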

Variant | protein stability index
K4T | 2.68
K4Y | 3.11
K4M | 2.08
K4G | 2.05
K4P | 3.29
K4D | 1.76
K4F | 2.78
K4W | 3.02
K4R | 2.88
K4H | 2.56
K4L | 2.71
K4E | 1.51
K4Q | 3.78
K4A | 3.08
K4N | 3.74
K4S | 2.6
K4V | 1.97
K4C | 2.55
F5A | 2.44
F2L | 1.75
F2G | 2.97
F2H | 1.68
F2N | 1.76
F2A | 1.94
F2I | 2.03

Variant | protein stability index
F2P | 2.15
F2Y | 1.8
F2K | 1.9
F2W | 2.38
F2D | 2.13
F2C | 3.07
F2V | 1.99
F2E | 1.79
F2S | 2.19
F2T | 1.62
F2R | 2.18
F2M | 2.96
F2Q | 2.91
R3L | 3.11
R3V | 2.99
R3Q | 2.14
R3A | 2.45
R3E | 2.13
R3T | 1.6
R3S | 2.58
R3F | 3.06
R3W | 2.24
R3H | 1.76
R3D | 1.61
R3K | 3.1

Variant | protein stability index
R3I | 3.31
R3G | 2.75
R3C | 3.97
R3M | 1.83
R3N | 2.89
R3Y | 2.37
S1P | 2.22
S1L | 2.08
S1Y | 2.22
S1H | 1.73
S1M | 2.99
S1F | 2.34
S1K | 2.07
S1E | 3.35
S1D | 2.25
S1I | 2.62
S1T | 1.61
S1N | 2
S1V | 2.17
S1Q | 2.67
S1A | 4.18
S1C | 2.8
S1R | 2.79

Variants of: B2
Experiment: as above
Conditions: c terminus: a fixed tail appended

Variant | protein stability index
S9M | 3.87
S9A | 4.37
S9R | 3.43
S9I | 4.09
S9G | 3.27
S9K | 3.94
S9H | 3.47
S9L | 3.76
S9N | 3.8
S9D | 3.86
I21F | 3.96
I21L | 3.96
I21S | 4.33
I21P | 4.3
I21Y | 3.14
I21H | 4.49
I21C | 4.33
I21E | 4.53
I21Q | 4.18
I21W | 3.55
I21N | 4.6
P14K | 3.56
P14S | 3.69
P14A | 3.34

Variant | protein stability index
P14N | 3.17
P14I | 2.8
P14E | 4.08
P14F | 2.32
P14D | 4.12
P14Y | 3.01
P14Q | 3.93
P14V | 3.48
T20V | 2.05
T20Y | 2.46
T20A | 3.64
T20R | 3.32
T20M | 3.67
T20G | 2.9
T20S | 4.1
T20H | 3.6
T20D | 3.61
T20I | 1.65
T20W | 2.93
T20P | 3.79
S4M | 2.95
S4L | 3.6
S4P | 3.02
S4D | 3.79

Variant | protein stability index
S4I | 3.4
S4H | 3.45
S4K | 3.75
S4A | 3.15
S4T | 3.16
S4V | 3.41
S4N | 2.99
S4C | 3.61
S4F | 3.49
E10H | 3.14
E10N | 3.35
E10D | 3.43
E10A | 2.98
E10W | 2.39
E10L | 2.98
E10G | 2.84
E10F | 2.45
E10K | 3.05
E10P | 3.51
E10T | 3.48
E10Q | 3.5
E10V | 2.6
Q3I | 3.24
Q3R | 3.4

Variant | protein stability index
Q3E | 3.82
Q3T | 4.11
Q3C | 3.81
Q3D | 3.9
Q3M | 3.53
Q3L | 3.65
Q3G | 3.79
Q3H | 3.22
Q3A | 3.67
G5Q | 3.77
G5F | 3.18
G5N | 3.96
G5Y | 3.17
G5D | 3.98
G5M | 3.41
G5R | 3.45
G5A | 3.21
G5S | 3.61
G5E | 4.5
G5I | 3.24
L23S | 4.08
L23P | 4.34
L23K | 4.74
L23E | 4.47

Variant | protein stability index
L23G | 3.77
L23D | 4.91
L23F | 3.44
L23T | 4.12
L23W | 3.79
L23H | 4.09
P8Y | 3.34
P8V | 3.33
P8L | 3.55
P8S | 3.48
P8K | 3.58
P8M | 3.66
P8N | 3.53
P8F | 3.27
P8Q | 3.57
P8T | 3.06
D1G | 3.26
D1A | 2.69
D1E | 3.31
D1V | 2.35
D1N | 3.09
D1L | 3.58
D1I | 2.67
D1Q | 3.88

Variant | protein stability index
D1S | 2.25
R19D | 4.43
R19A | 3.61
R19V | 2.28
R19Y | 2.11
R19I | 2.41
R19E | 4.76
R19N | 4.5
R19T | 3.21
R19G | 3.7
R19S | 4.08
R19W | 1.85
R19Q | 3.81
N13H | 3.3
N13R | 3.31
N13F | 2.66
N13W | 2.87
N13D | 4.22
N13E | 3.83
N13P | 3.71
N13T | 3.76
N13G | 2.46
N13A | 3.78
N13K | 3.88

Variant | protein stability index
N13Y | 3.16
N17E | 3.56
N17Y | 2.38
N17T | 3.51
N17R | 3.4
N17W | 2.59
N17L | 2.54
N17S | 2.9
N17F | 2.75
N17M | 2.39
N17I | 2.24
S24F | 1.82
S24P | 3.95
S24L | 1.56
S24N | 3.86
S24C | 2.35
S24D | 4.43
S24Q | 4.07
S24I | 1.84
S24G | 3.4
T15D | 4.15
T15Q | 3.63
T15E | 3.6
T15R | 3.76

Variant | protein stability index
T15V | 3.48
T15F | 2.51
T15P | 3.14
V18N | 4
V18I | 3.97
V18A | 4.38
V18C | 3.9
V18E | 4.06
V18L | 3.27
V18F | 3.61
V18M | 3.3
V18K | 3.78
V18T | 4.04
V18Y | 3.34
W12N | 4.48
W12H | 4.08
W12M | 4.1
W12T | 4.72
W12K | 4.54
W12D | 4.81
W12P | 4.4
W12R | 4.31
W12G | 4.33
P2A | 3.66

Variant | protein stability index
P2N | 3.35
P2I | 2.5
P2F | 2.81
P2V | 3.61
P2Q | 3.22
P2T | 3.52
P2L | 2.99
P2E | 3.59
L7Y | 3.06
L7D | 4.51
L7H | 3.67
L7W | 2.62
L7E | 4.02
L7C | 3.29
L7M | 3.71
L7A | 4.25
L7I | 3.35
L7N | 4.11
L7R | 3.81
L7T | 4.12
L7P | 4.68
E6K | 2.79
E6D | 3.44
E6S | 3.1

Variant | protein stability index
E6F | 2.3
E6G | 3.3
E6C | 3.02
E6Q | 3.49
E6M | 2.88
E6L | 2.61
E6T | 3.37
E6H | 3.25
E6W | 2.89
L22Y | 2.89
L22C | 4.12
L22V | 3.42
L22Q | 4.25
L22A | 4.31
L22G | 4.5
L22K | 4.41
L22D | 4.43
L22I | 3.05
L22S | 3.88
L22N | 4.47
L22P | 4.7
Q16T | 4.14
Q16H | 3.44
Q16R | 3.81

Variant | protein stability index
Q16V | 3.11
Q16Y | 2.54
Q16W | 2.54
Q16D | 3.97
Q16N | 3.48
Q16I | 2.83
Q16G | 3.53
R11M | 3.22
R11T | 3.98
R11I | 2.77
R11V | 3.62
R11K | 3.5
R11G | 4.23
R11C | 3.76
R11L | 3.24
R11D | 3.88
R11F | 2.82
R11P | 3.71
R11Q | 4.04
R11W | 2.79
R11A | 3.77
